In publication PMC11584402:

How the values were obtained:
[1] = target: BCL2-mCherry (human), P10415; details: natural protein; chains chain; remark: other sources report otherwise
[2] = target: BCLxL-mCherry (human), Q07817; test: probe binding assay (PBA; single-molecule pull-down with TIRF counting); mCherry-labelled anti-apoptotic protein immobilised from HEK293T crude extract on a PEG surface (biotinylated anti-RFP antibody); crude HEK293T extract with the eGFP-labelled probe diluted to a range of eGFP concentrations, 10 min; fractional occupancy of surface baits at equilibrium fitted with n fixed to 1 or with the generalized Hill …; details: remark: other sources report otherwise
[3] = target: MCL1-mCherry (human), Q07820; test: probe binding assay (PBA; single-molecule pull-down with TIRF counting); mCherry-labelled anti-apoptotic protein from HEK293T crude extract immobilised on the PEG surface (anti-RFP antibody); eGFP-labelled probe in crude HEK293T extract added at 0-20 nM eGFP, 10 min; fractional occupancy of surface baits fitted to [probe]/(Kd+[probe]); details: remark: other sources report otherwise
[4] = target: MCL1-mCherry (human), Q07820; test: probe binding assay (PBA; single-molecule pull-down with TIRF counting); mCherry-labelled anti-apoptotic protein immobilised from HEK293T crude extract on a PEG surface (biotinylated anti-RFP antibody); crude HEK293T extract with the eGFP-labelled probe diluted to a range of eGFP concentrations, 10 min; fractional occupancy of surface baits at equilibrium fitted with n fixed to 1 or with the generalized Hill …; details: remark: other sources report otherwise

MCL1-mCherry (human), Q07820, sequence (Q07820 whole entry): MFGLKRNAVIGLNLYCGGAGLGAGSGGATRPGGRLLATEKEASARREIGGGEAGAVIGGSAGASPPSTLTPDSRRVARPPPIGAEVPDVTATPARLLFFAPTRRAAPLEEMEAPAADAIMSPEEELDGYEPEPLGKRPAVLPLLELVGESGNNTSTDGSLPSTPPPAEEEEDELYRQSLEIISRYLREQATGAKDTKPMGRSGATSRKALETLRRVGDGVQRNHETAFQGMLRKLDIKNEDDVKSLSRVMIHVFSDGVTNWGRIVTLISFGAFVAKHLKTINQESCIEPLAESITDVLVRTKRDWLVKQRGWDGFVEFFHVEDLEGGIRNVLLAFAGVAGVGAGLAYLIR
BCLxL-mCherry (human), Q07817, sequence (Q07817 whole entry): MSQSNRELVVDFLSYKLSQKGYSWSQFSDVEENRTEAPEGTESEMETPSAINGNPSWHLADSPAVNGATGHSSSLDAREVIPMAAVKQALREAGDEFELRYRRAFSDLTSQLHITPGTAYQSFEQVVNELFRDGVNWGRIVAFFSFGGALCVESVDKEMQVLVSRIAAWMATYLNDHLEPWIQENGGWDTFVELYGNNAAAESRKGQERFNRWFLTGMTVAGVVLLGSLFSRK
BCL2-mCherry (human), P10415, sequence (P10415 whole entry): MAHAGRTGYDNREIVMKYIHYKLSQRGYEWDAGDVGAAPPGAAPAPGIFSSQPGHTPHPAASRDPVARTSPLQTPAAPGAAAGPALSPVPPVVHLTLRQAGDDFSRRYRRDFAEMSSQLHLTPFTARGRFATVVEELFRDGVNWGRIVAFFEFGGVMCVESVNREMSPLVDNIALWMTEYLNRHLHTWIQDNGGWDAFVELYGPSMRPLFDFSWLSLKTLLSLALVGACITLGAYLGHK

Kd [1] [nM] | Kd [2] [nM] | Kd [3] [nM] | Kd [4] [nM] | Binder
5.5 | 2.5 |  |  | BAD-eGFP, Q92934 1-168 (natural protein) MFQIPEFEPSEQEDSSSAERGLGPSPAGDGPSGSGKHHRQAPGLLWDASHQQEQPTSSSHHGGAGAVEIRSRHSSYPAGTEDDEGMGEEPSPFRGRSRSAPPNLWAAQRYGRELRRMSDEFVDSFKKGLPRPKSAGTATQMRQSSSWTRVFQSWWDRNLGRGSSAPSQ
 |  | 4.1 | 4.1 | NOXA-eGFP, Q13794 1-54 (natural protein) MPGKKARKNAQPSPARAPAELEVECATQLRRFGDKLNFRQKLLNLISKLFCSGT
